Source: doi:10.1101/2022.11.20.517165

Key:
[1] = molecular target: Toc90 (Chlamydomonas reinhardtii); test: cryo-EM structure
[2] = molecular target: Toc75 (Chlamydomonas reinhardtii); test: cryo-EM structure

Toc75 (natural protein) was tested, and the stoichiometry N [1] was 1.

B1: Toc34 (natural protein)
chain: MAQPPRPAEEYDDDVQEDEDELKEGELDDDESHEAASEGGEAAAGDEEAEDDEQDEEDGDEDSQPWAGLNRLPERDDMLDILNELRAEGRKQLTVLLLGKSSVGKSSLINSLLGEAVVRVQAFKLQADTDITTTVVRQVAVGNSEVDGFRLKLIDTCGLEDPEAGDTVNLGALSKIAEDVRGVGIDVVLYCDRLDLYRVDPLDKAIIDAISSTFGRGIWRRTVVALTHANLVQTPPGTDYDSFVNGRVRLIRGAVRGPLFFRPSLPVALVENSETCPVSSESGFRVLPDGEPWLVALVSQLVDMAAARRRPYKYHPRLSSKPSHRFRWLLPVAIAAEVLFYRRFLHPRLDDNQRRVEREEERVWALRGQQRRALGLHRPHRPDKDAAWRLEQMYDDD
Work on B1 yielded a stoichiometry N [2] of 1.
